Several values for one entry are separate records, joined by “and”; a condition that tells them apart may be missing. Equal entries are not always repeated.
Key:
Assay type in all cases: biochemical
[1] = Effect of metal ions on EstATII activity
Description: (§1) Enzyme activity was determined by measuring the formation of p-nitrophenol (pNP) from the enzymatic hydrolysis of the p-nitrophenyl ester; p-nitrophenyl butyrate (Sigma-Aldrich). The reaction mixture contained p-nitrophenyl butyrate (pNPB) to a final concentration 0.1 mM and 50 mM Tris-HCl pH=8. In this study, the standard reaction was conducted at 65° C., initiated by the addition of EstATII and terminated by the addition of 10% SDS. Measurements were done at 410 nm using UV-spectrophotometer (Ultrospec 3100 pro, Amersham Biosciences) unless stated otherwise^20. All experiments were performed in triplicates. Substrate specificity of EstATII was determined using p-nitrophenol esters with varying side chain length. Short-chain fatty acid esters used were PNP-acetate (C2), PNP-butyrate (C4) and PNP-valerate (C5) and long-chain fatty acid esters used were PNP-decanoate (C10), PNP-dodecanoate C12, PNP-myristate (C14) and PNP-palmitate (C16). The optimum temperature for the activity of EstATII was determined at a temperature range 30-80° C. The optimum pH for the activity of EstATII was measured at a pH range (3-9.5) using the following buffers: 50 mM sodium acetate (pH 3-5.5), 50 mM sodium phosphate (pH 6, 7.5) and 50 mM Tris-HCL (pH 7.5-9.5). Formation of pNP was measured at 348 nm (the pH-independent isosbestic wavelength of pNP)^21. The effect of NaCl concentration on enzyme activity was measured at different NaCl concentrations (0-4.5 M) under standard assay conditions. To assess the effect of metal ions on enzyme activity, cations were added to a final concentration of 1 mM, and relative activity measured at the above-described standard conditions. The effect of detergents (at final concentrations 0.1 and 1%) and inhibitors (final concentration 1 mM) on enzyme activity was tested at the above-described standard assay conditions.

[2] = Substrate specificity of EstATII
Description: as §1

[3] = Effect of detergents, reducing and modifying agents on EstATII activity; details: standard assay conditions
Description: as §1

[4] = Effect of temperature on EstATII esterase activity (p-nitrophenyl butyrate hydrolysis)
Description: as §1

[5] = Effect of pH on EstATII esterase activity (pNP formation measured at 348 nm)
Description: as §1

[6] = Effect of NaCl concentration on EstATII activity; details: for Relative Activity: absence of NaCl defined as 100%
Description: as §1

[7] = cation 1 mM, standard conditions

B1: EstATII: novel esterase from the lower convective layer of the Atlantis II brine pool, Red Sea; 314 amino acids, HSL family (protein)
chain: MSRYVDELYRNPGQPGLRALLRGMLKLLFRGLIRPPVPFAVQALVLRLLTLGMPLARGVTRSTEQIAGRPCMWHRPAAGGNGRVLLYLHGGAFVIGSPQTHRGICSALASRGQFDVCALDYRLAPAHPAPAACDDAVAAYQALLQRGYAPAQITLIGDSAGGNLVLVTAQKLAALKLPLPASLVCFSPVTDMTAEQLHAPAAGDPLLHPSWLDSARDAYCPAGLDRADPMVSPLFGQLKGLPPLLLQVGEDEVLLNDSLRLAEAARAADVAVRLERYEDLWHVFQAHAGLLHSADAALQRVVDFVNSAQTDSVS
Q: What does the source list for B1?
A: Relative activity with Ba^2+ [1, 7]: 158% and 158.3 ± 2.2%; Relative activity with Co^2+ [1, 7]: 104% and 104 ± 2%; Relative activity with Cu^2+ [1, 7]: 94.8 ± 0.1%; Relative activity with Fe^3+ [1, 7]: 96.2 ± 0.7%; Relative activity with Hg^2+ [1, 7]: 60.9 ± 0.4%; Relative activity with Mg^2+ [1, 7]: 90.6 ± 3.6%; Relative activity with Mn^2+ [1, 7]: 111% and 111.8 ± 0.1%; Relative activity with Zn^2+ [1, 7]: 85.2 ± 4.4%; Relative activity with Ca^2+ ([1]; cation 1 mM, standard conditions (65 °C, Tris-HCl pH 8, pNPB)): 94.8 ± 3%; Activity with the rest of the metal ions tested ([1]; metal ions other than Barium, Manganese, Cobalt, 1 mM): above 60%; Resistance to inhibition by all metal ions tested ([1]; significantly inhibited = relative activity below 50%): showed resistance to inhibition by all metal ions tested; Effect of EDTA chelation on enzyme activity ([1]; with and without EDTA chelation): not affected; Activity towards short-chain fatty acid esters ([2]; C2, C4 and C5 p-nitrophenol esters): active; Activity towards long-chain fatty acid esters ([2]; C10, C12, C14 and C16 p-nitrophenol esters): no activity; Relative Activity ([2]; substrate pNP-acetate (C2)): 100 ± 3%; Relative Activity ([2]; substrate pNP-butyrate (C4)): 61.9 ± 0.8%; Relative Activity ([2]; substrate pNP-decanoate (C10)): 0%; Relative Activity ([2]; substrate pNP-dodecanoate (C12)): 0%; Relative Activity ([2]; substrate pNP-myristate (C14)): 0%; Relative Activity ([2]; substrate pNP-palmitate (C16)): 0%; Relative Activity ([2]; substrate pNP-valerate (C5)): 40.5 ± 1.2%; Relative Activity ([3]; CTAB 1 mM): 13.1 ± 1.9%; Relative Activity ([3]; DTT 1 mM): 78.9% and 78.9 ± 4.2%; Relative Activity ([3]; SDS 0.1%): 6% and 6.1 ± 0.4%; Relative Activity ([3]; Triton X-100 0.1%): 42.3% and 42.2 ± 1.1%; Relative Activity ([3]; Tween 20 0.1%): 87.5% and 87.5 ± 2.3%; Relative Activity ([3]; Tween 20 1%): 40.1% and 40.1 ± 0.9%; Relative Activity ([3]; Tween 80 1%): 54.5% and 54.5 ± 0.7%; Relative Activity ([3]; β-mercaptoethanol 1 mM): 117.9% and 117.9 ± 0.3%; Relative Activity ([4]; 30 °C, pNPB 0.1 mM, 50 mM Tris-HCl pH 8, 65 °C defined as 100%): 56.3 ± 0.8%; Relative Activity ([4]; 35 °C, 65 °C defined as 100%): 59.9 ± 1%; Relative Activity ([4]; 40 °C, 65 °C defined as 100%): 65.3 ± 1.8%; Relative Activity ([4]; 45 °C, 65 °C defined as 100%): 86.9 ± 0.9%; Relative Activity ([4]; 50 °C, 65 °C defined as 100%): 90.9 ± 2%; Relative Activity ([4]; 55 °C, 65 °C defined as 100%): 93.9 ± 1%; Relative Activity ([4]; 60 °C, 65 °C defined as 100%): 95.9 ± 0.3%; Relative Activity ([4]; 65 °C, optimum condition (defined as 100%)): 100 ± 0.2%; Relative Activity ([4]; 70 °C, 65 °C defined as 100%): 91.6 ± 0.15%; Relative Activity ([4]; 75 °C, 65 °C defined as 100%): 76.7 ± 0.3%; Temp ° C. (apparent optimum temperature) ([4]; range tested 30-80 °C): 65 °C; Activity of the enzyme ([4]; temperatures ranging from 45° C. to 75° C.): > 70%; Relative Activity ([5]; pH 3, 50 mM sodium acetate, pH 8.5 defined as 100%): 0%; Relative Activity ([5]; pH 4, 50 mM sodium acetate, pH 8.5 defined as 100%): 0%; Relative Activity ([5]; pH 5, 50 mM sodium acetate, pH 8.5 defined as 100%): 0%; Relative Activity ([5]; pH 5.5, 50 mM sodium acetate, pH 8.5 defined as 100%): 13.1 ± 0.2%; Relative Activity ([5]; pH 6, 50 mM sodium phosphate, pH 8.5 defined as 100%): 38.5 ± 1.2%; Relative Activity ([5]; pH 6.5, pH 8.5 defined as 100%): 43.2 ± 2%; Relative Activity ([5]; pH 7, pH 8.5 defined as 100%): 81.5 ± 1%; Relative Activity ([5]; pH 7.5 (Na Phosphate), pH 8.5 defined as 100%): 88 ± 1%; Relative Activity ([5]; pH 7.5 (Tris.HCl), pH 8.5 defined as 100%): 66.1 ± 0.2%; Relative Activity ([5]; pH 8, 50 mM Tris-HCl, pH 8.5 defined as 100%): 84.7 ± 1.1%; Relative Activity ([5]; pH 8.5, optimum condition (defined as 100%)): 100 ± 3%; Relative Activity ([5]; pH 9, 50 mM Tris-HCl, pH 8.5 defined as 100%): 60 ± 2%; Activity of the enzyme ([5]; pH lower than 5.5): No activity; Activity of the enzyme ([5]; pH=7-9): > 50%; pH (highest activity) ([5]; range tested pH 3-9): 8.5; Relative Activity ([6]; 0.5M Sodium Chloride): 102.2 ± 2%; Relative Activity ([6]; 1M Sodium Chloride): 99.9 ± 0.5%; Relative Activity ([6]; 1.5M Sodium Chloride): 120 ± 1%; Relative Activity ([6]; 2M Sodium Chloride): 122.9 ± 1%; Relative Activity ([6]; 2.5M Sodium Chloride): 102.4 ± 1.8%; Relative Activity ([6]; 3M Sodium Chloride): 73.8 ± 3.8%; Relative Activity ([6]; 3.5M Sodium Chloride): 65.3 ± 4.6%; Relative Activity ([6]; 4M Sodium Chloride): 53.8 ± 1%; Relative Activity ([6]; 4.5M Sodium Chloride): 39.7 ± 1.7%; NaCl concentration of highest activity ([6]; range tested 0M-4.5M NaCl): 2 M; Activity ([6]; up to 4M NaCl): > 50%; Enzyme activity ([6]; up to 4.5M NaCl): maintained

Reference: patent US9963688B2, “Heavy metal resistant esterase” (AMERICAN UNIVERSITY OF CAIRO, priority 2013, dated 2018)
